Two molecules from US20040242851A1 (published 2004) can be followed below.

The Kd is the equilibrium constant for the complex coming apart. Read a high Kd as a looser complex. In general, koff refers to the first-order rate constant of dissociation. Low values mean slow dissociation, high ones fast dissociation. The term kon denotes the rate constant with which the complex forms. Read a high kon as faster complex formation. One may read the EC50 (read off the curve) as the concentration giving half of the maximal effect.

In test [1] the target is T1, Flt-1-Fc fusion protein (UniProt P17948 27-756, limits assumed).
T1 construct: Bought from R&D Systems; also called immobilized Flt-1; not shown: Fc
As to the kind of experiment: BIAcore SPR, Flt-1-Fc immobilized on the chip, antibody injected. The protocol: (§1) The binding kinetics of the diabody and its parent scFv to KDR and Flt-1 were measured using a BIAcore biosensor (Pharmacia Biosensor). KDR-AP or Flt-1-Fc fusion protein was immobilized onto a sensor chip and soluble antibodies were injected at concentrations ranging from 1.5 nM to 100 nM. Sensorgrams were obtained at each concentration and were analyzed with, BIA Evaluation 2.0, a program to determine the rate constants kon and koff. The affinity constant, Kd, was calculated from the ratio of rate constants koff/kon.

The target of test [2] is T1, Flt-1-Fc fusion protein. Description: direct binding ELISA on immobilized Flt-1, detection with anti-E tag antibody-HRP, A450. How it is done:
(§2) Two assays were carried out to determine the dual antigen binding capability of the diabody. First, a cross-linking assay was used to investigate whether the diabody is capable of binding both of its target antigens simultaneously. Briefly, the diabody or its parent scFv were first incubated in a 96-well Maxi-sorp microtiter plate (Nunc, Roskilde, Denmark) precoated with Flt-1-Fc fusion protein (1 μg/ml×[…] per well overnight at 4° C.) at room temperature (RT) for 1 h. The plate was washed three times with PBS containing 0.1% Tween (PBST), followed by incubation with KDR-AP fusion protein at RT for additional 1 h. The plate-bound KDR-AP was then quantified by the addition of AP substrate, p-nitrophenyl phosphate (Sigma, St. Louis, Mo.), followed by reading of the absorbance at 405 nm (Lu, D. et al., 1999). In the second, direct binding assay, various amounts of diabody or scFv were added to KDR or Flt-1 coated 96-well plates and incubated at RT for 1 h, after which the plates were washed 3 times with PBST. The plates were then incubated at RT for 1 h with 100 μl of an anti-E tag antibody-HRP conjugate (Amersham Pharmacia Biotech). The plates were washed, peroxidase substrate added, and the absorbance at 450 nm read following the procedure described previously (Lu, D. et al., 1999).
(§3) The antigen binding efficiency of the diabody was determined on immobilized KDR and Flt-1. […]
On the technique in general: An ELISA detects its analyte on a solid surface through an enzyme-linked reagent.

For test [3], the target named is T1, Flt-1-Fc fusion protein. Description: blocking ELISA: antibody pre-mixed with Flt-1-Fc, transferred to immobilized PlGF; plate-bound Flt-1-Fc detected with anti-human Fc-HRP, A450. How it is done: The assays followed previously described protocols (Zhu, Z. et al., 1998; Lu, D. et al., 1999). Briefly, various amounts of the diabody or scFv were mixed with a fixed amount of KDR-AP (100 ng) or Flt-1-Fc fusion protein (50 ng) and incubated at RT for 1 h. The mixture were then transferred to 96-well microtiter plates precoated with VEGF₁₆₅ (200 ng/well) or PlGF (200 ng/well) and incubated at RT for an additional 2 h, after which the plates were washed 5 times with PBS. For the KDR-AP assay, the substrate for AP was added, followed by reading of the absorbance at 405 nm to quantify the plate-bound KDR-AP. For the Flt-1-Fc assay, the plate was incubated with a mouse anti-human Fc-HRP conjugate to quantify the plate-bound Flt-1-Fc.

The target of test [4] is KDR on human umbilical vein endothelial cells (HUVEC) (human, UniProt P35968 20-1356). As to the kind of experiment: cell-based or functional assay.
Test [5] addresses T2, soluble fusion protein KDR-alkaline phosphatase (AP) (human, UniProt P35968 20-764).
T2 construct: Expressed in stably transfected NIH 3T3 cells; also called KDR-AP; soluble KDR; not shown: alkaline phosphatase (AP)
As to the kind of experiment: BIAcore SPR, KDR-AP immobilized on the chip, antibody injected. The protocol: as §1
In general terms: In SPR one partner is held on a chip, and binding of the other changes the refractive index at the surface.

In test [6] the target is T2, soluble fusion protein KDR-alkaline …. As to the kind of experiment: direct binding ELISA on immobilized KDR, detection with anti-E tag antibody-HRP, A450. How it is done: as §2, §3

T1 sequence (P17948 27-756 limits assumed): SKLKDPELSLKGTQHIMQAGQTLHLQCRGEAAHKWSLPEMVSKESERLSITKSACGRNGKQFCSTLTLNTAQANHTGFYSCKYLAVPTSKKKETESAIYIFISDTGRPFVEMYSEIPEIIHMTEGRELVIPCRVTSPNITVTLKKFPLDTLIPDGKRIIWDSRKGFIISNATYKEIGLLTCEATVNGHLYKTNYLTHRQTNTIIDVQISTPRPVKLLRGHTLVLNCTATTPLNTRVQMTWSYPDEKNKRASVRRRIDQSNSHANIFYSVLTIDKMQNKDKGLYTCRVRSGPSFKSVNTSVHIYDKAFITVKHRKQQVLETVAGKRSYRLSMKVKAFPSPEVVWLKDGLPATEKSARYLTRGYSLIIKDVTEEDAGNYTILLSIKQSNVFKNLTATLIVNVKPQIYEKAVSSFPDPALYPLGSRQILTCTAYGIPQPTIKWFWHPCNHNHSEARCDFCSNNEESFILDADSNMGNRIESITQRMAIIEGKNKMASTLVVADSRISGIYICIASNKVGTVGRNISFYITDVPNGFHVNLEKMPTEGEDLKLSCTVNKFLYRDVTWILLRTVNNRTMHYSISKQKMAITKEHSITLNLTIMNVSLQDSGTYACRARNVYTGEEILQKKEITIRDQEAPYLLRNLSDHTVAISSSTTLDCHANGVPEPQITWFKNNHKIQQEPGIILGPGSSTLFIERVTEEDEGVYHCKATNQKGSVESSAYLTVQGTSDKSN
T2 sequence (P35968 20-764): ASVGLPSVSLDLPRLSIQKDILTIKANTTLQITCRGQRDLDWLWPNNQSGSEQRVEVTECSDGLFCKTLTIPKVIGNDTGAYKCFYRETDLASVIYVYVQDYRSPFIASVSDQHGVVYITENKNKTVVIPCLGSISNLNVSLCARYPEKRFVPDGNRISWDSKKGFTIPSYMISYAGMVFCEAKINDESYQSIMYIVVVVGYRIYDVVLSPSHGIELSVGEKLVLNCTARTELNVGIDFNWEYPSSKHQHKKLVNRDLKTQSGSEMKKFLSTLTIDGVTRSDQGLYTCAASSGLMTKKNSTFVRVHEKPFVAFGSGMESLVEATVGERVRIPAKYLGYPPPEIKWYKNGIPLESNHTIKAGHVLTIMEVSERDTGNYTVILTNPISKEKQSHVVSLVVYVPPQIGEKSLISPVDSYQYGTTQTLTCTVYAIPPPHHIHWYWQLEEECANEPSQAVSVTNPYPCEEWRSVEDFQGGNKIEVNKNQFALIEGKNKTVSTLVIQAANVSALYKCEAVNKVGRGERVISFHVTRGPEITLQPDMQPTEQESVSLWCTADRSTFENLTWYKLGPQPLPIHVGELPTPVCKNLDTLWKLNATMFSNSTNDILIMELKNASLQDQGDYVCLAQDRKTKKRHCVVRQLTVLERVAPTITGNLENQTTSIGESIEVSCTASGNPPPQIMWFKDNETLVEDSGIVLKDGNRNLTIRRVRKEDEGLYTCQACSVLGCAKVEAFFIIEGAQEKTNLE
Chain of KDR on human umbilical vein endothelial cells (HUVEC) (P35968 20-1356): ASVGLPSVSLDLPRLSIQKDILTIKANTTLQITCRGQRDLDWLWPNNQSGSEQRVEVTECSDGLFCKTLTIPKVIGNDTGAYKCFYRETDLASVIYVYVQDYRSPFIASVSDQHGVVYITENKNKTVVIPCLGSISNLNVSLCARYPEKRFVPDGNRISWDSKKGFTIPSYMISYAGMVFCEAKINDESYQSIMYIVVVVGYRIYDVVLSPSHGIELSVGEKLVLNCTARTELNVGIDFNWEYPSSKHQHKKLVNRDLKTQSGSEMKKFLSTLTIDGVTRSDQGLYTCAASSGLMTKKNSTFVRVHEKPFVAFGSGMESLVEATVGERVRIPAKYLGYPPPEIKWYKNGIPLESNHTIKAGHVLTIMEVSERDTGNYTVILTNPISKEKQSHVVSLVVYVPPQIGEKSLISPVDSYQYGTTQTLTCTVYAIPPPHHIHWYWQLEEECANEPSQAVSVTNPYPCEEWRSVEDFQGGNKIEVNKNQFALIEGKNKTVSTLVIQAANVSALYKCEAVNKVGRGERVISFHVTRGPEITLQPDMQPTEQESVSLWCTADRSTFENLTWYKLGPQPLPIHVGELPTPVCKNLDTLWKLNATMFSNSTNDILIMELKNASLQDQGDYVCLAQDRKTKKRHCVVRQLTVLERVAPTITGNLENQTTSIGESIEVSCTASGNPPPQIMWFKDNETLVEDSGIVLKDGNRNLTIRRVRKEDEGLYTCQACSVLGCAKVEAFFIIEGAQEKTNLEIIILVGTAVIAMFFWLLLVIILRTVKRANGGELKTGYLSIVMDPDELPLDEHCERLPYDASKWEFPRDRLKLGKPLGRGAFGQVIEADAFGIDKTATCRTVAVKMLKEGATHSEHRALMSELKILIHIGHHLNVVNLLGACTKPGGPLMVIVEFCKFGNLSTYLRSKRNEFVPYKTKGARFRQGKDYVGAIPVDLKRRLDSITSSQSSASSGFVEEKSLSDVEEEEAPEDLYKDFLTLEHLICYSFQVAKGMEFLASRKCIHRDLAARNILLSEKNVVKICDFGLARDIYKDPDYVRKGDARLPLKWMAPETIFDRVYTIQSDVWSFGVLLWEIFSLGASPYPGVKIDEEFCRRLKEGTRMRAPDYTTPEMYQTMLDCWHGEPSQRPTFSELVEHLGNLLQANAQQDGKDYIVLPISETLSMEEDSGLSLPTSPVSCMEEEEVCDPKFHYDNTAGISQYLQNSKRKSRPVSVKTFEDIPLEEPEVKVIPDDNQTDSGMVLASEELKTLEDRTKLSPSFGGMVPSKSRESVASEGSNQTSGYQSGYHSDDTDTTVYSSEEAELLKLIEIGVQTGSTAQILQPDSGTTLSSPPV

B1: scFv 6.12 (scFv, not shown: small tags and cut ends)
scFv: QVKLQQSGAELVKPGASVKLSCTASGFNIKDTYIHWVKQSPEQGLEWIGRIDPPNDNTKYDPKFQGKATITADTSSNTAYMQLRSLTSEDTAVYYCALPPFYFDYWGHGTTVTVSSGGGGSGGGGSGGGGSDIELTQSPKFMSTSVGDRVSVTCKASQNVDTNVAWYQQKPGQSPKALIYSASYRYSGVPDRFTGSGSGTDFTLTISNVQSEDLAEYFCQQYNSFPYTFGGGTKLEIK
modifications: The soluble scFv from pCANTAB 5E carried a C-terminal E tag (detected with anti-E tag) whose letters the patent does not give; it is left out.
notes: VH-(GGGGS)3-VL, expressed from pCANTAB 5E in E. coli
As to B1, in the test with Flt-1-Fc fusion protein [1], the equilibrium dissociation constant (Kd) is 9.8 nM, the koff was 0.00236 s⁻¹ and the kon is 241000 M⁻¹ s⁻¹. Also, in the test with Flt-1-Fc fusion protein [2], the “EC50 (read off the curve)” value was around 0.6 nM. Also, the “IC50 (read off the curve)” value in the test with Flt-1-Fc fusion protein [3] is around 1 nM.

B2: scFv p1C11 (scFv)
scFv: QVKLQQSGAELVGSGASVKLSCTTSGFNIKDFYMHWVKQRPEQGLEWIGWIDPENGDSDYAPKFQGKATMTADSSSNTAYLQLSSLTSEDTAVYYCNAYYGDYEGYWGQGTTVTVSSGGGGSGGGGSGGGGSDIELTQSPAIMSASPGEKVTITCSASSSVSYMHWFQQKPGTSPKLWIYSTSNLASGVPARFSGSGSGTSYSLTISRMEAEDAATYYCQQRSSYPFTFGSGTKLEIK
notes: soluble form made in E. coli; also called KDR-specific scFv p1C11
Take B2: the “VEGF-stimulated HUVEC mitogenesis ([3H]-TdR incorporation), IC50” value in test [4] is around 2 nM. For the same molecule, in test [5], the Kd is 1.68 nM, the koff was found to be 0.000121 s⁻¹ and the kon is 74200 M⁻¹ s⁻¹. For the same molecule, in test [6], the “EC50 (read off the curve)” value was around 0.4 nM. Moreover, the binding result with Flt-1-Fc fusion protein [2] is “no binding (tested: about 50 nM)”.
